Assay results: patent US20050064507A1, “Determining kinase specificity” (priority 2003, published 2005)

Key:
PKA = molecular target: T1, PKA (Homo sapiens, UniProt P17612); assay: In vitro kinase assay: peptide phosphorylation by PKA; assay type: biochemical; details: normalized to best substrate
T1 construct: purchased Calbiochem
Protocol: (§1) Catalytically active preparations of the kinases of interest were either purchased or prepared. Purchased and tested active kinase preparations including the following: PKC-alpha, PKC-delta, PKC-epsilon, PKC-zeta, PKC-mu, PKA, PKG from Calbiochem, ROK alpha/ROCK-II, active from Upstate Biotechnology, and AKT1 from Panvera.
(§2) The conditions of the kinase assay and the amount of active kinase used varied with the kinase and with the accuracy needed. For a typical experiment, 5-20 ng of kinase was used per well and each peptide pool was assayed in duplicate wells. Note that the absolute amount of kinase used was not usually a critical parameter, because the desired information related to specificity of the kinase not its absolute activity, and robustness of the assay depends on comparisons of the same amount of kinase on different peptides. The combination of kinase concentration and assay duration was modified to assure that the stoichiometry of peptide phosphorylation never exceeded 5%. The choice of kinase buffer depended on the kinase being analyzed. For studies of PKC, 100 mM HEPES, 0.05% Triton-X100, 1 mM CaCl2, 20 mM MgCl2, 0.2 mg/ml phosphatidyl serine (Avanti Polar Lipids), PMA 100 ng/ml was typically used. The lipid stock was prepared by transferring 3 mg phosphatidyl serine into iced mixture of 450 μl water plus 50 μl of 10% Triton-X100, sonicating 10 times on ice for 1 sec each.
(§3) The kinase reaction mixture was assembled by sequential addition to a tube held on ice of: 5 μl peptide (100 μM for final concentration of 10 μM), 15 μl of kinase (typically 5 ng/well, in appropriate kinase buffer), 30 μl of ATP (1 uCi/well of ^32P-gamma ATP in a stock of 167 μM cold ATP in the kinase buffer; for final concentration for 100 μM ATP). The mixture was rapidly warmed to desired reaction temperature (30° C. for PKC) and incubated for the desired duration (usually 10 minutes). The kinase assay was terminated by transfer to 4° C. water batch, and rapid addition of an equal volume (50 μl) of stop solution [0.1M ATP+0.1M EDTA in water, pH 8].
(§4) The peptides were then captured from the reaction mixture by transfer to a Reacti-Bind Streptavidin High Binding Capacity Coated Plates (HBC) (Pierce Biotechnology) as follows. The HBC plates were pre-rinsed three times with PBS/Tween PBS/Tween20 0.05% (PBS/Tween). Part of all of the reaction mixture was then transferred wells of a HBC plate pre-filled with 90 μl of phosphate-buffered saline (PBS); typically each aliquots of each phosphorylation reaction were transferred to duplicate HBC plates to assure accuracy by additional replication
(§5) For kinase assays done at the standard peptide concentration of 10 μM, the peptide concentration in the reaction mixture becomes 5 μM after addition of the stop solution; consequently 10 μl of the reaction (50 pMoles of peptide) was transferred to the HBC plate. More generally, the amount of reaction mixture transferred was estimated to be about 50 pMoles of peptide. […] The HBC plates were incubated for 0.5 to 1.5 hr at room temperature for complete binding of biotinylated peptides to plate-bound streptavidin. The HBC plates were then washed extensively with PBS/Tween. Five washes were done routinely and additional wash steps were added if the wash solution removed from the plate had measurable radioactivity as detected using a Geiger counter. This step is essential to obtaining a good the signal to noise ratio because the fraction of radioactivity incorporated in the peptides was a tiny fraction of the total in the reaction mixture. The wells were air-dried. A volume of 40-50 μl of microScint-20 (Packard Instruments) was added to each well. The plates were covered with stick-on film sheet. Radioactive emissions were measured in a TopCount NXT Microplate Scintillation and Luminescence Counter (Packard Instruments). Typically samples were counted for 5 minutes (or more) to improve the signal to noise ratio when counts were low. […]

AKT1 = molecular target: T2, AKT1 (Homo sapiens, UniProt P31749); assay: In vitro kinase assay: peptide phosphorylation by AKT1; assay type: biochemical; details: normalized to best substrate
T2 construct: purchased Panvera
Protocol: as §1, §2, §3, §4, §5

T2 sequence (P31749 whole entry, species assumed): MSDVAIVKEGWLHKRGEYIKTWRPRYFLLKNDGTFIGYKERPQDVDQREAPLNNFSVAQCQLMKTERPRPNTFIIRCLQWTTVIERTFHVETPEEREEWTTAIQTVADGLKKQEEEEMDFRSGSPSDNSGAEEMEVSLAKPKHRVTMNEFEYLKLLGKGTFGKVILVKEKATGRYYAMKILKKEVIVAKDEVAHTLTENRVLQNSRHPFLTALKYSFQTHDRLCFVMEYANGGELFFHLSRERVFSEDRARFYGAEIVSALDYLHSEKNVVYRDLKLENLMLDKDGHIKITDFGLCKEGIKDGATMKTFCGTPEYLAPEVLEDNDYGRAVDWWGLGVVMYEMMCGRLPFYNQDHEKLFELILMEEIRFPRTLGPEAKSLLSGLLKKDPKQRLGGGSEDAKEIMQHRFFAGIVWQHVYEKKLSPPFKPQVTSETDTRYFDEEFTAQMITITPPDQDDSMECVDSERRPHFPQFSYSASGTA

| Substance | PKA phosphorylation (PKA) [%] | AKT1 phosphorylation (AKT1) [%] |
| --- | --- | --- |
| 81 (KRERKTSSKSSVRKRR) [compound 81] | 2 | 9 |
| 87 (RQGKRKTSIKRDTVNPL) [compound 87] | 64 | 7 |
| 88 (KKPFKLSGLSFKRNRKE) [compound 88] | 3 | 10 |
| 91 (VHYTSKDTLRKRHYWR) [compound 91] | 3 | 5 |
| 97 (KKRSSKKEASMKKVVRP) [compound 97] | 1 | 10 |
| 98 (AGPLRKSSLKKGGRL) [compound 98] | 21 | 7 |
